Results from patent US20170096492A1, “DOSAGE AND ADMINISTRATION OF ANTI-IGF-1R, ANTI-ErbB3 BISPECIFIC ANTIBODIES, USES THEREOF AND METHODS OF TREATMENT [sequence]” (Merrimack Pharmaceuticals, Inc., priority 2014, published 2017).
Entries after “also recorded” stand apart in the source; their conditions may differ.

Tests used:
[1] = system: patients with solid tumors; test: Phase 1 dose escalation study, MM-141 monotherapy (Arm A): safety and disease response; type: in vivo, human
Text: Adverse events that were reported with a frequency>15% included: vomiting (7/15), nausea (6/15), fatigue (4/15), abdominal pain (4/15), increased AP (4/15), dyspnea (4/15), diarrhea (3/15), anemia (3/15), increased AST (3/15), and rash (3/15). […] The safety, tolerability, PK and PD profiles support weekly and biweekly MM-141 dosing.

[2] = system: hepatocellular carcinoma tumor biopsies; test: Immunohistochemistry of pre- and post-treatment tumor biopsies (cohort 4D); type: in vivo, human; conditions: post- vs pre-treatment, MM-141 20 mg/kg weekly, sorafenib-refractory HCC
Text: Formalin fixed, paraffin embedded biopsy samples were sectioned at 5 μm, processed and stained for IGF-1R (G11 clone detection antibody, Ventana) and ErbB3 (clone D22 antibody, Cell Signaling Technology).

[3] = system: BxPC-3 pancreatic cancer cells; test: CTG cell viability, paclitaxel with IGF-1 or HRG, three-dimensional cultures; type: cell-based, human
Experimental: The cell viability assay (FIGS. 7A-B and 8A-B) was carried out using a CellTiter-Glo® (CTG) assay (Promega), which determines the number of viable cells in a culture based on quantitation of the ATP present. In FIGS. 7A-B, BxPC-3 cells were grown in low serum alone or with exogenous IGF-1 or HRG added (0-50 nM). […] For the cell viability assays described in FIGS. 8(A-B), (FIG. 8A) BxPC-3 and (FIG. 8B) CFPAC-1 cells were cultured in low (2%) serum alone or with a combination of IGF-1 (50 nM) and HRG (10 nM).

[4] = system: HepG2 hepatocellular carcinoma cells; test: HepG2 western blot, sorafenib with or without MM-141; type: cell-based; conditions: MM-141 500 nM added to sorafenib 5 μM, 2 hours
Experimental: HepG2 cells were plated on 12 well dishes (3×10^5 cells per well) in 10% serum-containing media and incubated overnight. […] Following treatment, cells were harvested in lysis buffer containing protease and phosphatase inhibitors and analyzed by western blotting.

[5] = system: BxPC-3 (KRas wild-type) pancreatic cancer cells; test: pAKT western blot, GSK-1120212 and MM-141; type: cell-based, human; conditions: 24 h
Experimental: Following treatment, cells were harvested in cell lysis buffer and western blotting was performed and quantified for pAKT (Serine 473).

[6] = system: platinum-sensitive (Peol, PEA1 and OvCAR5) and platinum-resistant (Peo4 and PEA2) ovarian cancer cells; test: CTG cell viability, paclitaxel with IGF-1 or HRG, three-dimensional ovarian cultures; type: cell-based; conditions: paclitaxel 10-100 nM, IGF-1 or HRG 0-50 nM, MM-141 1 μM, 2% serum
Experimental: The cell viability assay (FIGS. 17A-B) was carried out using a CellTiter-Glo® (CTG) assay (Promega), which determines the number of viable cells in a culture based on quantitation of the ATP present. In FIGS. 17A-B, Peol, Peo4, PEA1, PEA2 and OvCAR5 cells were grown in 2% serum alone or with exogenous IGF-1 or HRG added (0-50 nM).

[7] = system: CFPAC-1 pancreatic cancer cells; test: Total ErbB3 and total IGF-1R ELISA (Example 20); type: cell-based, human; conditions: 50 nM, relative to vehicle control
Experimental: CFPAC-1 pancreatic cancer cells were seeded at 65% confluence in 10% serum-containing medium and incubated in 96-well plates overnight. […] After treatment, cells were harvested and protein lysates generated. Changes in ErbB3 and IGF-1R levels across all treatments were evaluated by total ErbB3 or total IGF-1R ELISA, respectively.

[8] = system: IGF-1R and ErbB3 receptors; test: Receptor expression ELISA versus monospecific antibodies (Example 31); type: cell-based; conditions: 50 nM, four hours post-treatment, compared with monospecific antibodies
Experimental: Cell lysates were harvested four hours post-treatment with antibodies as indicated in FIGS. 33A and 33B (50 nM of each antibody) and changes in receptor expression were measured by ELISA. All ELISA measurements are normalized to vehicle (PBS) treatment, and these measurements are expressed relative to a vehicle treated control value of 1.

[9] = system: CFPAC-1 pancreatic cancer cells; test: pAKT (Ser473) ELISA after chemotherapy and ligand stimulation; type: cell-based, human; conditions: 24 hours
Experimental: (§1) CFPAC-1 pancreatic cancer cells were seeded at 65% confluence in 10% serum-containing medium on 96-well plates overnight. […] Following incubation, cells were treated with (FIG. 24A) HRG (5 nM) or (FIG. 24B) IGF-1 (50 nM) for 15 minutes, where indicated. After treatment, cells were harvested and protein lysates generated. Changes in pAKT (Ser473) levels across all treatments were evaluated by pAKT ELISA, respectively. FIGS. 24(A-B) are bar graphs showing pAKT levels relative to ligand alone stimulated signals, which were normalized to 1.
as §1, with “25A)” for “24A)”, “25B)” for “24B)”, “25(A-B)” for “24(A-B)”

[10] = system: CFPAC-1 pancreatic cancer cells; test: Receptor ubiquitination, immunoprecipitation and immunoblotting; type: cell-based, human; conditions: 500 nM MM-141 20 minutes after 2 hours 1 μM epoxomicin
Text: Cell lysates were immunoprecipitated (IP) with an IGF-1R (FIG. 33C) or ErbB3 (FIG. 33D) antibody, and then immunoblotted (IB) for IGF-1R, ErbB3, or ubiquitin protein (Ub) expression by western blotting.

[11] = patients with event / 15 patients dosed, all dose levels
[12] = MM-141 500 nM added to paclitaxel 50 nM

## MM-141: polyvalent bispecific antibody P4-G1-M1.3, anti-IGF-1R and anti-ErbB3; heavy chain SEQ ID NO: 3, light chain SEQ ID NO: 4
[1]; monotherapy 6, 12, 20 mg/kg q7d or 40 mg/kg q14d, 15 patients
  dose-limiting toxicities: No dose-limiting toxicities were observed; also recorded: No DLTs were observed
[1]; patients with Ewing's Sarcoma (1) and parotid gland carcinoma (1)
  disease stabilization: Disease stabilization was observed
[1]; [11]
  adverse events reported with a frequency>15%: abdominal pain: 4/15
  adverse events reported with a frequency>15%: anemia: 3/15
  adverse events reported with a frequency>15%: diarrhea: 3/15
  adverse events reported with a frequency>15%: dyspnea: 4/15
  adverse events reported with a frequency>15%: fatigue: 4/15
  adverse events reported with a frequency>15%: increased AP: 4/15
  adverse events reported with a frequency>15%: increased AST: 3/15
  adverse events reported with a frequency>15%: nausea: 6/15
  adverse events reported with a frequency>15%: rash: 3/15
  adverse events reported with a frequency>15%: vomiting: 7/15
[2]
  ErbB3 level in tumor biopsy: decreased; also recorded: Down-regulation
  IGF-1R level in tumor biopsy: decreased; also recorded: Down-regulation
[3]; [12]
  sensitivity to cytotoxic properties of paclitaxel in a high IGF-1 setting: re-sensitize cells
  sensitivity to cytotoxic properties of paclitaxel in the presence of high HRG: re-sensitize cells
[3]; paclitaxel 50 nM, IGF-1 or HRG 0-50 nM, MM-141 500 nM
  resistance to cytotoxic effect of paclitaxel caused by IGF-1 or heregulin: resistance was reversed
[4]
  sorafenib-induced up-regulation of ErbB3 and pAKT: overcome
[5]; MM-141 1000 nM with GSK-1120212 250 nM
  pAKT upregulation induced by the MEK inhibitor: decreases the pAKT upregulation
[5]; single agent, GSK-1120212 250 nM or MM-141 1000 nM
  pAKT (Serine 473) level: down-regulates the basal level of pAKT
[6]
  resistance to cytotoxic effect of paclitaxel caused by IGF-1 or heregulin: resistance was reversed
[7]
  total ErbB3 protein level: potently down-regulates
  total IGF-1R protein level: potently down-regulates
[8]
  decrease of ErbB3 expression level: to a greater extent
  decrease of IGF-1R expression level: to a greater extent
[9]; MM-141 500 nM with gemcitabine 1 μM
  gemcitabine-induced increased sensitivity to HRG and IGF-1, pAKT (Ser473): this effect is blocked
[9]; MM-141 500 nM with paclitaxel 100 nM
  paclitaxel-induced increased sensitivity to IGF-1, pAKT (Ser473): this effect is blocked
[10]
  IGF-1R and ErbB3 receptor ubiquitination: induction of ubiquitination; also recorded: enhanced receptor ubiquitination
